Columns and labels:
Assay in all cases: IEDB peptide-MHC binding, purified MHC/competitive/radioactivity; ≥ and ≤ were set here for values at or beyond the usual limits of such assays
Settings in all cases: source organism: Homo sapiens
HLA-A*11:01 = target: HLA-A*11:01
HLA-A*02:01 = target: HLA-A*02:01
HLA-A*03:01 = target: HLA-A*03:01
HLA-A*30:01 = target: HLA-A*30:01
HLA-A*01:01 = target: HLA-A*01:01
HLA-A*31:01 = target: HLA-A*31:01
HLA-B*27:05 = target: HLA-B*27:05
HLA-B*08:01 = target: HLA-B*08:01
HLA-A*33:01 = target: HLA-A*33:01
HLA-A*68:01 = target: HLA-A*68:01

IC50 (HLA-A*11:01) [µM]	IC50 (HLA-A*02:01) [µM]	IC50 (HLA-A*03:01) [µM]	IC50 (HLA-A*30:01) [µM]	IC50 (HLA-A*01:01) [µM]	IC50 (HLA-A*31:01) [µM]	IC50 (HLA-B*27:05) [µM]	IC50 (HLA-B*08:01) [µM]	IC50 (HLA-A*33:01) [µM]	IC50 (HLA-A*68:01) [µM]	Sequence
0.133										KITDFGLAK
≥ 20	≥ 20	≥ 20								AIKTSPKA
4.65	≥ 20	0.584								AIKTSPKANK
≥ 20	≥ 20	≥ 20								KIPVAIKTS
≥ 20	≥ 20	≥ 20								IPVAIKTS
6.43	≥ 20	4.5								PVAIKTSPKAN
≥ 50	≥ 50	0.664	≥ 50	≥ 50	1.06	14.7	3.37	≥ 50	≥ 50	GLAKLLGAEEK
≥ 20	≥ 20	16.5								IKTSPKANK
1.69	≥ 20	0.679								KTSPKANK
≥ 20	≥ 20	≥ 20								IKTSPKANKEI
≥ 20	≥ 20	≥ 20								PVAIKTSP
11.6	≥ 20	9.32								PVAIKTSPKA
≥ 20	≥ 20	≥ 20								KIPVAIKTSP
≥ 20	≥ 20	≥ 20								KTSPKANKEIL
≥ 20	≥ 20	≥ 20								VKIPVAIKTS
≥ 50	≥ 50	≥ 50	7.63	≥ 50	4.67	41.3	0.475	6.53	≥ 50	HVKITDFGL
≥ 20	≥ 20	≥ 20								VKIPVAIKTSP
9.92	≥ 20	1.59								AIKTSPKANKE
0.862	≥ 20	0.253								KIPVAIKTSPK
0.782	≥ 20	0.529								PVAIKTSPK

More lines, now with the values behind:

Sequence	IC50 (HLA-A*11:01) [µM]	IC50 (HLA-A*02:01) [µM]	IC50 (HLA-A*03:01) [µM]	IC50 (HLA-A*30:01) [µM]	IC50 (HLA-A*01:01) [µM]	IC50 (HLA-A*31:01) [µM]	IC50 (HLA-B*27:05) [µM]	IC50 (HLA-B*08:01) [µM]	IC50 (HLA-A*33:01) [µM]	IC50 (HLA-A*68:01) [µM]
VAIKTSPKA	≥ 20	≥ 20	≥ 20							
KVKIPVAIKTS	11.4	≥ 20	0.508							
LAKLLGAEEK	≥ 50	≥ 50	43.5	37.3	≥ 50	29.9	≥ 50	≥ 50	20.3	2.01
GRAKLLGAEEK	≥ 50	≥ 50	42.9	≥ 50	≥ 50	4.86	0.0438	≥ 50	≥ 50	≥ 50
VAIKTSPKAN	≥ 20	≥ 20	≥ 20							
IPVAIKTSPK	3.35	≥ 20	1.66							
AIKTSPKAN	≥ 20	≥ 20	≥ 20							
IKTSPKANKE	≥ 20	≥ 20	≥ 20							
VAIKTSPKANK	1.63	≥ 20	1.85							
VKIPVAIKT	≥ 20	≥ 20	≥ 20							
IPVAIKTSPKA	≥ 20	≥ 20	≥ 20							
EKVKIPVAIKT	15.1	≥ 20	11.2							
KTSPKANKEI	≥ 20	≥ 20	≥ 20							
KIPVAIKT	≥ 20	≥ 20	≥ 20							
RAKLLGAEEK	21.7	≥ 50	6.56	1.77	≥ 50	0.817	10.5	≥ 50	35.6	28.9
IKTSPKAN	≥ 20	≥ 20	≥ 20							
KVKIPVAIKT	10.2	≥ 20	0.397							
FGLAKLLGA	≥ 50	0.107	≥ 50	8.77	≥ 50	8.45	3.7	0.0266	≥ 50	≥ 50
VAIKTSPK	1.98	≥ 20	3.68							

Reference: the Immune Epitope Database (IEDB)
